US20230095569A1
Substitutions are numbered along the chain they refer to. Each block holds one binder with its values, some of them ahead of it.

Legend:
[1] = target: mouse Claudine18.2 (mouse) (UniProt P56857); experiment: FACS on CHOK1-m18.2 cells
[2] = target: Rhesus monkey Claudine18.2 (Rhesus monkey) (UniProt F6YQY3); experiment: FACS on CHOK1-rh18.2 cells

B1: Ab03 (antibody, V domains shown)
VH: EVQLQQSGPELVKPGASVKIACKASGYTFTDYNMDWVKQSHGKSLEWIGNINSYYGGTIYNQKFKGKATLTVDKSSSTAYMVLRSLTSEDNAVYYCARPHLGNALDYWGQGTSITVSS
VL: DIVVTQSPSSLTVTPGEKVTMSCKSSQSLFNSGNQKNYLSWYQQNPGQPPKLLIYWASTRQSGVPDRFTGSGSGTDFTLTISSVQAEDLAGYYCQNDYIFPLTFGAGTKLELK
FACS MFI [1]: 2970 | FACS MFI [2]: 1430

B2: Ab01 (antibody, V domains shown)
VH: DVQLQESGPGLVKPSQSLSLTCSVTGYSITSGYYWNWIRQFPGNKLEWMGYITYDGSNNYNPSLKNRISITRDTSKNQFFLKLNSVTTEDAATYFCARDPNYYGTTLPAWFVYWGQGTLVTVSA
VL: DIVVTQSHKFMSTSVGDRVSITCKASQDVGTAVAWYQQKPGQSPKLLIYWASTRHTGVPDRFTGSGSGTDFTLTISNVQSEDLTDYFCQQYSSYVTFGAGTKLELK
FACS MFI [1]: 12700 | FACS MFI [2]: 8380

B3: Ab11 (antibody, V domains shown)
VH: EVMLVESGGDLVKPGGSLKLSCAASGFTFSRYTMSWVRQTPEKRLEWVATVSVGSGNTYYLDSVKGRFTISRDNAKNTLFLQMNSLRSEDTALYYCTRLGQTQRNAVDYWGQGTSVTVSS
VL: DIVMTQSPSFLSVSAGEKVTMSCKSSQSLFNGGNQKNYLAWYQQKPGQPPKLLIYGASTRDSGVPDRFTGSGSGTDFTLTISNVQAEDLAIYFCQNDHSFPLTFGAGTKLELK
FACS MFI [1]: 11200 | FACS MFI [2]: 7800

B8: Ab07 (antibody, V domains shown)
VH: EVQLQQSGPELVKPGASVKISCKASGYSFTDYFMNWVKQSHGKGLEWIGRINPYNGDTFYNQKFKGKATLTVDKSSSTAHMELLSLTSEDFAVYYCALYDGYWGAFVYWGQGTLVTVSA
VL: DIQMTQSPASLSVFVGETVTITCRASENIYSNLAWYQQKQGKSPQLLVYAATNLADGVPSRFSGSGSGTQYSLKINSLQSEDFGSYYCQHFWGTPLTFGAGTKLELK
FACS MFI [1]: 15000 | FACS MFI [2]: 9040

B9: Ab06 (antibody, V domains shown)
VH: EVQLVASGGGLVKPGGSLKLSCAASGITFRSYAMSWVRQTPEKRLEWVATITDGGSYIFYPDNVKGRFTISGDHAKNNLYLQMSHLKSEDTALYFCVRLYYGNSFAYWGQGTLVTVSA
VL: DIVMTQSPSSLTVTAGEKVTLNCKSSQSLFNSGNQKNYLTWYQQKPGQPPKLLIYWASTRESGVPDRFTGSGSGTDFTLTFSSVQAEDLAVYYCQNAYIYPFTFGSGTKLEIK
FACS MFI [1]: 13200 | FACS MFI [2]: 14000

B11: Ab12 (antibody, V domains shown)
VH: EVMLVESGGGLVKPGGSLKLSCAASGFTFSSYTMSWVRQTPEKRLEWVATIIGGYGNTYYADSVKGRFTISRDSAKNTLYLQMLSLRSEDTALYYCTRLGQTQRNAMDYWGQGTSVTVSS
VL: DILMTQSPSSLSVSAGEKVTMSCKSSQSLLNSGNQRNYLAWYQQKPGQPPKLLIYGASTRESGVPDRFTGSGSGTDFTLTISSVQAEDLAVYYCQNDYYYPLTFGAGTKLELK
FACS MFI [1]: 13100 | FACS MFI [2]: 7610

B12: Ab05 (antibody, V domains shown)
VH: DVKLVESGEDLVKPGGSLKLSCAASGFTFSNYAMSWVRQTPEKRLEWVAYVSSGGDYIYYADTVKGRFIISRDNARNTLYLQMNSLRSEDTAMYYCARVYFGNSLDYWGQGTTLTVSS
VL: B9 VL with N22S, F30L, S32G, K45R, T80I, F81I, A97D, I99Y, F102W, S106G
FACS MFI [1]: 12500 | FACS MFI [2]: 9850

B13: Ab13 (antibody, V domains shown)
VH: EVRLVESGGGLVKPGGSLKLSCAGSGFTFSSYTMSWVRQTPEKRLEWVATITIGVNIYYLDSVKGRFTISRDNAKNTLYLQMNSLRSEDTALYYCTRLGQTQRNAMDYWGQGTSVTVSS
VL: B11 VL with L3V, S9T, S22T, R36K, Q44E, D97N, Y98H, Y99F
FACS MFI [1]: 12500 | FACS MFI [2]: 5630

B15: Ab09 (antibody, V domains shown)
VH: EVQLQQSGPELVKPGTSVKMSCKASGYTFTDYNMHWVKLSHGKSLEWIGYINPNNGGTIYNQRFKGKATLTVNKSSRTAYMDLRSLTSEDSAVYYCARQGYYGNSMDYWGQGNSVTVSS
VL: DIVMTQSPSSLTVTPGERVTMSCKSSQSLLNGGNQRNYLTWYQQKPGQPPKLLIYWASTRESGVPDRFAGSGSGTDFTLTISRVQAEDLSFYYCQNSYFYPFTFGSGTKLDLR
FACS MFI [1]: 12600 | FACS MFI [2]: 8100

B17: Ab04 (antibody, V domains shown)
VH: EVQLQQSGPELVKPGASVKMSCMASGYTFTDYNIHWVKRSHGSRLEWIGYISPISGGAGYNQKFMDKATLTVDKSSNTAYMELRSLTSEDSAVYYCTRGDYWGQGTTLTVSS
VL: DIVMTQSPSSLAVTVGEKVTMSCKSSQSLLNSGNQKNYLTWYQQKPGQPPKLLIYWASTRKSGVPDRFTGSGSGTDFTLTISSVQAEDLGIYYCLNDYGFPLTFGAGSKLELK
FACS MFI [1]: 8440 | FACS MFI [2]: 2130

Other lines, results leading:

FACS MFI [1]: 23400 | FACS MFI [2]: 12000
B4: Ab25 (antibody, V domains shown)
VH: EAQLQQSGPELVKPGASVKIFCKASGYTFTDYYINWVKQSHGKSLEWIGDINPNNGGTTYNQKFKGKATLTVDKSSSTASMELRRLTSEDSSVYYCARRDAMDYWGQGTSVTVSS
VL: DIVMTQSQKFMSTTVGDRVSITCTASQNVGPAVAWYQQKPGQSPKLLIYSASRRFTGVPDRFTGSGSGTVFTLTINNVQSEDLADYFCQQYISYPLTFGAGTKLELK

FACS MFI [1]: 18600 | FACS MFI [2]: 16700
B5: Ab37 (antibody, V domains shown)
VH: EVKLEESGGGLVQPGGSMKLSCVASGFTFSNYWMNWVRQYPEQGLEWVAQIRLNSDNYATHYAESVKGRFTISRDDSRSTVYLQMNNLRAEDTGIYYCTGGGEYWGQGTTLTVSS
VL: B4 VL with V15I, T24K, G30D, P31T, R53T, F55Y, V70D, N76S, V78M, P95Q

FACS MFI [1]: 9610 | FACS MFI [2]: 10500
B6: Ab30 (antibody, V domains shown)
VH: QVQLKESGPGLVAPSQSLSITCTVSGFSLTKFGVNWVRQPPGKGLEWLGAIWGDGSTNYHSALISRLSINKDNSKSQVFLKLSSLQNVDTATYYCAKSGYGNAMDYWGHGTSVTVSS
VL: DIVMTQSPSSLTVTTGEKVTLNCKSSQSLLNSGNLKNYLTWYQQRPGQPPKLLIYWASTRESGVPYRFTGSGSGTDFTLTISNVQAEDLAIYYCQNDYFFPFTFGSGTKLEIK

FACS MFI [1]: 10700 | FACS MFI [2]: 6720
B7: Ab34 (antibody, V domains shown)
VH: EVLLQQSGPELVKPGASVKIPCKASGYTFSDYNMDWVKQSHGKSLEWIGHINPNNDNTIYNQKFKGKATLTVDKSSNTAYMDLRSLSSEDTAVYYCARGAYYGNSMDYWGQGTSVTVSS
VL: DIVMTQSPSSLTVTAGERVTMSCKSSQSLLNGGNQRNYLTWYQQKPGQSPKLLIYWASTWESGVPDRFTGSGSGTDFTLTISSVQAEDLAVYYCQNAYFYPYTFGGGTKLEIK

FACS MFI [1]: 8240 | FACS MFI [2]: 9240
B10: Ab27 (antibody, V domains shown)
VH: QVQLQQSGAELVRPGSSVKISCKASGYAFSNYWMNWVKQRPGQGLEWIGQIYPGNGDTNYNGKFKGKATLTADKSSTTAYIQLSSLTSEDSAVYFCTRIYYGNSFAYWGQGTLVTVS
VL: B11 VL with L3V, S12T, S14T, K18R, R36K, A40T, G56W, S83R, E87Q

FACS MFI [1]: 12200 | FACS MFI [2]: 6320
B14: Ab15 (antibody, V domains shown)
VH: EVMLVESGGDLVKPGGSLKLSCAASGFTFSTYTMSWVRQTPEKRLEWVATIVGGGGYTYYLDSVKGRFTISRDNAKNTLYLQMISLRSEDTALYYCARMGLTQRNALDYWGQGTSITVSS
VL: B11 VL with L3V, A15E, M21L, S22N, L30F, R36K, S73F, Y98H, Y99T, T108A

FACS MFI [1]: 15700 | FACS MFI [2]: 8290
B16: Ab26 (antibody, V domains shown)
VH: EVMLVESGGGLVKPGGSLKLSCTASGFTFRSYTMSWVRQTPEKRLEWVATITGGGGNTYFLDSVKGRFTFSRDNAKNALYLQMNSLRSEDTALYYCARLGQTQRNAMDYWGQGTSVTVSS
VL: DIVMTQSPSSLSVSAGEKVTMSCKSSQSLLNSGNQMNYLAWYQQKPGQPPKLLIYGASTRESGVPDRFTGSGSGTDFTLTISSVQAEDLAIYYCQNDHTYPLTFGAGTKLEL

FACS MFI [1]: 7790 | FACS MFI [2]: 8010
B18: Ab31 (antibody, V domains shown)
VH: QIQLAQSGPELKKPGETVKISCKASGYSFTNYGMNWVKQAPGKGLKWMGWINTYSGETKYADDFKGRFDFSLETSARTAYLQIKNLKIEDTATYFCARRDAMDYWGQGTSVTVSS
VL: DIVMTQAAPSVPVTPGESVSISCRSSKSLLNSNGNTYLYWFLQRPGQSPQLLIYRMSNLASGVPDRFSGSGSGTAFTLRISRVEAEDVGVYYCMQHLEFPFTFGSGTKLEIK

FACS MFI [1]: 14300 | FACS MFI [2]: 6660
B19: Ab16 (antibody, V domains shown)
VH: EVMLVESGGGLVKPGGSLKLSCAASGFTFNSYTMSWVRQTPEKRLEWVATITVIGGNTYYLDSVKGRFTISIDNGKNTLYLQMSSLRSEDTALYYCARMGQTQRNAMDYWGQGTSVTVSS
VL: B11 VL with L3V, E17Q, S22R, R36K, P46L, T69S, S82T, Y99S, Y100F

FACS MFI [1]: 9610 | FACS MFI [2]: 8340
B20: Ab35 (antibody, V domains shown)
VH: DVFLQESGPGLVKPSQSLSLTCTVTGYSITSDYAWNWIRQFPGNKLEWVTYIGYSGTTSYNPSLKSRISITRDTSKNQFFLQLNSVSTEDTATYYCVRRGSYYGSYWFFDVWGAGTTVTVSS
VL: QVVLSQSPAILSASPGEKVTMTCRASSSVSYMHWYQQKPGSSPKPWIYATSNLASGVPPHFSGSGSGTSYSLTISRVEAEDAATYYCQQWTSNPPTFGGGTKLEIK

FACS MFI [1]: 21900 | FACS MFI [2]: 25700
B21: Ab29 (antibody, V domains shown)
VH: EVLLQQSGPELVKPGASVKIPCKASGYTLTDHSMDWVKQSHGKSLEWIGNILPNNGGNIYNQKFRGKATLTVDKSSSTAYMELRSLTSEDTAVYNCARGHYGNSFAYWGQGTLVIVS
VL: DIVMTQSPSSLTVRAGEKVTIYCKSSQSLFNSGNQKNYLTWYQQKPGQPPKLLIYWASTRESGVPHRFTGSGSGTDFTLTISSMQADDLATYYCQNGYFFPYTFGGGTKLEIK
